Results on 10 molecules are retold here after patent publication US20250027068A1.

Where a chain is given by its changes, count along the chain named.

To fix the notation:
B1: VRT-32 (Fc fusion)
chain: QITSVWTKGVTPPTPEQFRYNNEDVFHAPYTAHQGWYDITKTFDGKDNLLCGAATAGNMLHWWFDQNKTEIEAYLSKHPEKQKIIFNNQELFDLKAAIDTKDSQTNSALFNYFRDKAFPGLSARQLGVFPDLVLDMFINGYYLNVFKTQSTDVNRPYQDKDKRGGIFDAVFTRGVQTTLLTARHDLKNKTLNDISTIIKQELTEGRALALSHTYANVRISHVINLWGADFNAEGNLEAIYVTDSDSNASIGMKKYFVGVNASGKVAISAKKIEGENIGAQVLGLFTLSSGKDIWQKLSDKTHTCPPCPAPEAAGAPSVFLFPPKPKDTLMISRTPEVTCVVVDVSHEDPEVKFNWYVDGVEVHNAKTKPREEQQNSTYRVVSVLTVLHQDWLNGKEYKCKVSNKALKAPIEKTISKAKGQPREPQVYTLPPSRDELTKNQVSLTCLVKGFYPSDIAVEWESNGQPENNYKTTPPVLDSDGSFFLYSKLTVDKSRWQQGNVFSCSVMHEALHNHYTQKSLSLSPG
B2: VRT-39 (Fc fusion)
chain: ITSVWTKGVTPPAKFTQGEDVFHAPYVANQGWYDITKTFNRKDNLLCGAATAGNMLHWWFDQNKEEIEAYLKKHPEKQKIIFGDQELLDVRKVINTKDSQTNSALFNYFKDKAFPNLSARRLGVFPDLVLDMFINGYYLNVYKTQTTDVNRTYQTKDRRGGIFDAVFTRGVQSKLLTERHDFKEKTLKEISDLIKQELTEGKALGLSHTYANVRINHVINLWGADFDSNGNLEAIYVTDSDTRASIGMKKYFVGVNAAGKVAISAKEIKEDNIGAQVLGLFTLSTGQDIWNQTNDKTHTCPPCPAPEAAGAPSVFLFPPKPKDTLMISRTPEVTCVVVDVSHEDPEVKFNWYVDGVEVHNAKTKPREEQQNSTYRVVSVLTVLHQDWLNGKEYKCKVSNKALKAPIEKTISKAKGQPREPQVYTLPPSRDELTKNQVSLTCLVKGFYPSDIAVEWESNGQPENNYKTTPPVLDSDGSFFLYSKLTVDKSRWQQGNVFSCSVMHEALHNHYTQKSLSLSPG
B3: VRT-37 (Fc fusion)
chain: VTSVWTKGVTPPTNFTYGEDVLHAPYVANQGWYDITKTFNRKDNLLCGAATAGNMLHWWFDQNKEQIENYLKKHPEKQKINFKGEQLFDVKEAIDTKDSQLDSKLFEYFKEKAFPYLSTKHLGVFPDHVIDMFINGYRLSLTNHGPTPVKRGSKDKRGGIFDAVFTRGVQSKLLTNRHDFKEKTLKEISDLIKQELTEGKALGISHTYANVRINHVINLWGADFDAEGNLEAIYVTDSDTEASIGMKKYFVGVNKNGKVAISAKEIEEDNIGAQVLGLFTLSTGQDIWNQTNDKTHTCPPCPAPEAAGAPSVFLFPPKPKDTLMISRTPEVTCVVVDVSHEDPEVKFNWYVDGVEVHNAKTKPREEQQNSTYRVVSVLTVLHQDWLNGKEYKCKVSNKALKAPIEKTISKAKGQPREPQVYTLPPSRDELTKNQVSLTCLVKGFYPSDIAVEWESNGQPENNYKTTPPVLDSDGSFFLYSKLTVDKSRWQQGNVFSCSVMHEALHNHYTQKSLSLSPG
B4: VRT-40 (Fc fusion)
chain: TITSVWTKGVTPPTPEDFRYYNEDVLHAPYVANQGWYDITKTFDGKDNLLCGAATAGNMLHWWFDQNKEEIERYLKKHPEKQKIIFKNQELFDVKAAIDTKDSQTNSKLFNYFRDKAFPGLSARQLGVFPDLVLDMFINGYYLNLGKTQSTDVNRPYQDKDKRGGIFDAVFTRGVQTTLLTARHDLKNKGLNEISDLIKQELTEGKALALSHTYANVRINHVINLWGADFDAEGNLIAIYVTDSDTRASIGMKKYFVGVNANGKVAISAKKIEGDNIGAQVLGLFTLSTGQDIWQKLSDKTHTCPPCPAPEAAGAPSVFLFPPKPKDTLMISRTPEVTCVVVDVSHEDPEVKFNWYVDGVEVHNAKTKPREEQQNSTYRVVSVLTVLHQDWLNGKEYKCKVSNKALKAPIEKTISKAKGQPREPQVYTLPPSRDELTKNQVSLTCLVKGFYPSDIAVEWESNGQPENNYKTTPPVLDSDGSFFLYSKLTVDKSRWQQGNVFSCSVMHEALHNHYTQKSLSLSPG
B5: VRT-42 (Fc fusion)
chain: QITSVWTKGVTPLTPEQFRYYNEDVIHAPYLANQGWYDITKTFNGKDNLLCGAATAGNMLHWWFDQNKTEIEAYLKKHPEKQKIIFKNQELFDLKAAIDTKDSQTNSQLFNYFRDKAFPGLSARQLGVFPDLVLDMFINGYYLNVFKTQSTDVNRPYQDKDKRGGIFDAVFTRGVQTTLLTARHDLKNKGLNEISTLIKQELTEGKALALSHTYANVRISHVINLWGADFNAEGNLEAIYVTDSDSRASIGMKKYFVGVNAHGKVAISAKKIEGENIGAQVLGLFTLSSGKDIWQKLSDKTHTCPPCPAPEAAGAPSVFLFPPKPKDTLMISRTPEVTCVVVDVSHEDPEVKFNWYVDGVEVHNAKTKPREEQQNSTYRVVSVLTVLHQDWLNGKEYKCKVSNKALKAPIEKTISKAKGQPREPQVYTLPPSRDELTKNQVSLTCLVKGFYPSDIAVEWESNGQPENNYKTTPPVLDSDGSFFLYSKLTVDKSRWQQGNVFSCSVMHEALHNHYTQKSLSLSPG
B6: VRT-35 (Fc fusion)
chain: VTSVWTKGVTPPANFTQGEDVFHAPYKANQGWYDITKTFNRKDNLLCGAATAGNMLHWWFDQNKDQIEAYLKEHPEKQKINFKGEQLFDVKEAIDTKDDQTNSKLFEYFKEKAFPYLSTKHLGVFPDHVLDMFINGYRLSLTNHGPTPVKEGSKDKRGGIFDAVFTRGVQSKLLTSRHDFKEKTLKEISDLIKQELTEGKALALSHTYANVRINHVINLWGADFDSNGNLEAIYVTDSDTEASIGMKKYFVGVNKAGKVAISAKEIEDDNIGAQVLGLFTLSTGQDIWNQTNDKTHTCPPCPAPEAAGAPSVFLFPPKPKDTLMISRTPEVTCVVVDVSHEDPEVKFNWYVDGVEVHNAKTKPREEQQNSTYRVVSVLTVLHQDWLNGKEYKCKVSNKALKAPIEKTISKAKGQPREPQVYTLPPSRDELTKNQVSLTCLVKGFYPSDIAVEWESNGQPENNYKTTPPVLDSDGSFFLYSKLTVDKSRWQQGNVFSCSVMHEALHNHYTQKSLSLSPG
B7: VRT-36 (Fc fusion)
chain: B6 chain with K27V, A69R, D99S, N102D, A203G, N227E, E231K, E267K, D268E
B8: VRT-38 (Fc fusion)
chain: VTSVWTKGVTPPADFTQGEDVFHAPYVANQGWYDITKTFNRKDNLLCGAATAGNMLHWWFDQNKEYIEAYLKKHPEKQKIIFGDQELLDVRKAINTKGSQKNSELFNYFRDKAFPNLSARRLGVFPDLVLDMFINGYYLNVTKTQTTDVNRTYQEKDKRGGIFDAVFTRGVQSKLLTSRHDFKEKGLKEISDLIKQELTEGKALGLSHTYANVRINHVINLWGADFDSDGNLKAIYVTDSDTRASIGMKKYFVGVNAAGKVAISAKEIKEDNIGAQVLGLFTLSTGQDIWNQTNDKTHTCPPCPAPEAAGAPSVFLFPPKPKDTLMISRTPEVTCVVVDVSHEDPEVKFNWYVDGVEVHNAKTKPREEQQNSTYRVVSVLTVLHQDWLNGKEYKCKVSNKALKAPIEKTISKAKGQPREPQVYTLPPSRDELTKNQVSLTCLVKGFYPSDIAVEWESNGQPENNYKTTPPVLDSDGSFFLYSKLTVDKSRWQQGNVFSCSVMHEALHNHYTQKSLSLSPG
B9: VRT-33 (Fc fusion)
chain: SQTEDSESLQRLRDIEDFQAEKKKQNVVYTKWLDGVDVKDHDFRKIVDGNIAYYATPLLNGRGFYDINKDFNRDNDKCAAAVAANMFHYWLDRNRDNVDRFLRQNPEKHGIIELPDGQLKLSDFLNTYESDDGYRDKSKLFDFISNNFNGPVWTDKLLDNYINGYAYNYKYGRTIEDSTKNTSKINFFKEVFNEKILTNNHSIRNQNEFSVLLSEALYTGKAIGLSYGPAGLRHSLGHIISVWGADLDADGNVVAIYVTDSDDKKLTIGDERVGLKRYKISTDDEGRLRLTAYEETHNTGGQIRGLWTLDTGKQAWADYFDKTEQTGTDQAEQDKTHTCPPCPAPEAAGAPSVFLFPPKPKDTLMISRTPEVTCVVVDVSHEDPEVKFNWYVDGVEVHNAKTKPREEQQNSTYRVVSVLTVLHQDWLNGKEYKCKVSNKALKAPIEKTISKAKGQPREPQVYTLPPSRDELTKNQVSLTCLVKGFYPSDIAVEWESNGQPENNYKTTPPVLDSDGSFFLYSKLTVDKSRWQQGNVFSCSVMHEALHNHYTQKSLSLSPG
B10: VRT-34 (Fc fusion)
chain: B9 chain with R93I, D132H

For this experiment, the target named is pooled human IgG (human). Briefly: cell-based or functional assay.
The molecule B1 registered an Enzyme Activity Endpoint Assay: Fab′2 of 0 ng/µL, an Enzyme Activity Endpoint Assay: Fc of 96 ng/µL, an Enzyme Activity Endpoint Assay: IgG of 803 ng/µL and an Enzyme Activity Endpoint Assay: scIgG of 79 ng/µL.

On to B2, for which the Enzyme Activity Endpoint Assay: Fab′2 was 0 ng/µL, the Enzyme Activity Endpoint Assay: Fc was 27 ng/µL, the Enzyme Activity Endpoint Assay: IgG is 1020 ng/µL and the Enzyme Activity Endpoint Assay: scIgG was found to be 22 ng/µL.

As for B3, the Enzyme Activity Endpoint Assay: Fab′2 came out at 0 ng/µL, the Enzyme Activity Endpoint Assay: Fc was determined as 101 ng/µL, the Enzyme Activity Endpoint Assay: IgG was found to be 854 ng/µL and the Enzyme Activity Endpoint Assay: scIgG came to 38 ng/µL.

For the molecule B4, the Enzyme Activity Endpoint Assay: Fab′2 amounted to 63 ng/µL, the Enzyme Activity Endpoint Assay: Fc came out at 243 ng/µL, the Enzyme Activity Endpoint Assay: IgG was 167 ng/µL and the Enzyme Activity Endpoint Assay: scIgG was found to be 222 ng/µL.

As to B5, the Enzyme Activity Endpoint Assay, Fab′2 came out at 0 ng/µL; the Enzyme Activity Endpoint Assay, Fc was determined as 28 ng/µL; the Enzyme Activity Endpoint Assay, IgG is 985 ng/µL; the Enzyme Activity Endpoint Assay, scIgG was determined as 20 ng/µL.

In the case of B6, the Enzyme Activity Endpoint Assay: Fab′2 came out at 0 ng/µL, the Enzyme Activity Endpoint Assay: Fc was 25 ng/µL, the Enzyme Activity Endpoint Assay: IgG is 1020 ng/µL and the Enzyme Activity Endpoint Assay: scIgG was determined as 22 ng/µL.

In turn, B7 gave an Enzyme Activity Endpoint Assay: Fab′2 of 0 ng/µL, an Enzyme Activity Endpoint Assay: Fc of 112 ng/µL, an Enzyme Activity Endpoint Assay: IgG of 1030 ng/µL and an Enzyme Activity Endpoint Assay: scIgG of 62 ng/µL.

Molecule B8 returned an Enzyme Activity Endpoint Assay: Fab′2 of 0 ng/µL, an Enzyme Activity Endpoint Assay: Fc of 27 ng/µL, an Enzyme Activity Endpoint Assay: IgG of 990 ng/µL and an Enzyme Activity Endpoint Assay: scIgG of 20 ng/µL.

B9: the Enzyme Activity Endpoint Assay: Fab′2 was found to be 0 ng/µL, the Enzyme Activity Endpoint Assay: Fc was 5 ng/µL, the Enzyme Activity Endpoint Assay: IgG was found to be 1040 ng/µL and the Enzyme Activity Endpoint Assay: scIgG turned out to be 21 ng/µL.

The molecule B10 displayed an Enzyme Activity Endpoint Assay: Fab′2 of 0 ng/µL, an Enzyme Activity Endpoint Assay: Fc of 5 ng/µL, an Enzyme Activity Endpoint Assay: IgG of 1020 ng/µL and an Enzyme Activity Endpoint Assay: scIgG of 20 ng/µL.
